{"source": "paper PMC9935730", "about": "“Expression, Purification, Structural and Functional Characterization of Recombinant Human Parvulin 17” (Molecular Biotechnology, 2022)", "binders": {"B1": {"name": "Catalytic domain of Par17, residues 60-156 (domain or fragment)", "chain": "not shown"}, "B2": {"name": "Catalytic domain of Pin1, residues 50-163 (domain or fragment, human, UniProt Q13526 50-163, looked up)", "chain": "GEPARVRCSHLLVKHSQSRRPSSWRQEKITRTKEEALELINGYIQKIKSGEEDFESLASQFSDCSSAKARGDLGAFSRGQMQKPFEDASFALRTGEMSGPVFTDSGIHIILRTE"}}, "molecular_target": "T1, FRET peptide substrate Ac-EK(Dabcyl)pSPRFE(EDANS)KA-NH2 (SMILES …)", "T1 peptide": "Ac-EK(Dabcyl′)[pS]PRFE(EDANS)KA-NH2", "experiment": "cell-based or functional assay", "note": "Square brackets hold non-standard residues; d marks the D form. Primed or numbered codes have the meaning given here. * marks the point of attachment. Dabcyl′ = quencher group on the Lys side chain, CN(C)c1ccc(/N=N/c2ccc(C(=O)*)cc2)cc1; EDANS = O=S(=O)(O)c1cccc2c(NCCN*)cccc12; pS = N[C@@H](COP(=O)(O)O)C(=O)O", "data": [{"binder": "B1", "values": [{"measurement": "Km, FRET-based chymotrypsin-coupled peptidyl-prolyl cis–trans isomerase assay (values at 1 h)", "value": 62.5, "unit": "µM"}]}, {"binder": "B2", "values": [{"measurement": "Km, FRET-based chymotrypsin-coupled peptidyl-prolyl cis–trans isomerase assay (values at 1 h)", "value": 48.2, "unit": "µM"}]}]}
